# From patent publication US20250206841A1 (ADEPT THERAPEUTICS, published 2025)
# T1: human Trop-2-His protein (human, UniProt P09758 27-274)
# T1 construct: extracellular domain; Assay paragraphs say only 'Trop-2-His'; also called hTrop-2; Kactus Cat #TRP-HM121; not shown: His tag
# T1 sequence (looked up): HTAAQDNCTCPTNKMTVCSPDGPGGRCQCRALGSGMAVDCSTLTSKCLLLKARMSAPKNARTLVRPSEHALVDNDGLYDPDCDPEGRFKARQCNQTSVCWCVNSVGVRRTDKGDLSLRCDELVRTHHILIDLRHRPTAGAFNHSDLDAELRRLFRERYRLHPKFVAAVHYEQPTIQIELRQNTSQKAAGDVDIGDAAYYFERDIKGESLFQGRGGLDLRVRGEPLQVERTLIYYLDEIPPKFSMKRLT
# T2: cynomolgus Trop-2-His protein (cynomolgus, UniProt P09758 27-274 (human entry))
# T2 construct: also called cynmolgus Trop-His; Kactus Cat #TRP-CM121; not shown: His tag
# T2 chain: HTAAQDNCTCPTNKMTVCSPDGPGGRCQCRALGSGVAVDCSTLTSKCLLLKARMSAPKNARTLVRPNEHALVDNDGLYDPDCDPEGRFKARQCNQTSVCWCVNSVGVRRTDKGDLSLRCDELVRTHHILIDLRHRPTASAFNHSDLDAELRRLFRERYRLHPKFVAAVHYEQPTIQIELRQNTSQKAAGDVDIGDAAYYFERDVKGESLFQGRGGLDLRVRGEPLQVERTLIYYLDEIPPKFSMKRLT
# Tests used:
# human Trop-2-His protein = biological target: T1, human Trop-2-His protein; experiment: BLI (Gator Prime), LEM supernatant Ab on HFC probe
# Method: (§1) After three times of regeneration and neutralization of HFC probe (Gator, Cat #160003), LEM transfection supernatant samples to be tested in K buffer was diluted 1:1 in K buffer and immobilized onto HFC probe. […] The association and dissociation of human or cynomolgus Trop-2-His antigen from antibody was measured on BLI machine Gator Prime. Affinity was calculated using Gator Bio analysis software. Blank control was used for reference subtraction. 1 μg/ml of Sacituzumab govitecan was used as positive control.
# (§2) Table 23 below summarizes the binding affinity of exemplary anti-Trop-2 antibodies in LEM transfection supernatant samples to human and cynomolgus Trop-2 using Gator.
# [1] = biological target: T2, cynomolgus Trop-2-His protein; experiment: BLI (Gator Prime), LEM supernatant Ab on HFC probe
# Method: as §1, §2
Kd (human Trop-2-His protein),koff (human Trop-2-His protein),kon (human Trop-2-His protein),Kd [1],koff [1],kon [1],Binder
0.173 nM,6.8e-05 s⁻¹,391000 M⁻¹ s⁻¹,≤ 0.132 nM,~5.62e-05 s⁻¹,426000 M⁻¹ s⁻¹,"10F12 (antibody, V domains shown, Rabbit-derived clone; LEM construct: VH + rabbit IgG CH1 + human IgG1 CH2-CH3) VH: QSLEESGGDLVQPGASLTLTCRASGFDLNNYSMLWVRQAPGKGLEWIGCIYISGGTTYFASWATGRFAISKTSSTTVTLQMTSLTAADTATYFCARDDGSTSYYLNLWGPGTLVTVSS VL: YDMTQTPASVSAAVGGTVTIKCQASEDIYSLLAWYQQKPGQPPKLLIFDASDLASGVPSRFKGSGSGTEYTLTISDLECDDAATYYCQQAYTIGNIDNAFGGGTEVVVK"
0.989 nM,0.00046 s⁻¹,465000 M⁻¹ s⁻¹,0.893 nM,0.00053 s⁻¹,592000 M⁻¹ s⁻¹,"69H10 (antibody, V domains shown, Rabbit-derived clone; LEM construct: VH + rabbit IgG CH1 + human IgG1 CH2-CH3) VH: QEQLKESGGGLVQPGGSLKLSCKASGFDFNKYGVSWVRQAPGKGLEWIAYIYPAFHNTYYATWVNGRFTISSHNAQNTLYLQLNTLTAADTATYFCARDAGTTDYNFNLWGPGTLVTVSS VL: DVVMTQTASPVSAAVGGTVTIKCQASQSIYSYLSWYQQKPGQPPKLLIYEASKLASGVSSRFSGSGYGTEFTLTISGVECADAATYYCQQALTVGNVDNPFGGGSEVVVK"
0.959 nM,0.00051 s⁻¹,532000 M⁻¹ s⁻¹,1.27 nM,0.00092 s⁻¹,726000 M⁻¹ s⁻¹,"62A10 (antibody, V domains shown, Rabbit-derived clone; LEM construct: VH + rabbit IgG CH1 + human IgG1 CH2-CH3) VH: QSLVESGGGLVQPEGSLTLTCKASGFDFNNYAVTWVRQAPGEGLEYIGFIGIRGHIYYANWAKGRFTISKTSSTTMTLQMTSLTVADTATYFCARGGLWTGNSYFDLWGPGTLVTVSS VL: YDMTQTPASVEVAVGGTVTINCQASESISRYLAWYQQKPGQSPKPLIYRASTLASGVPSRFQGSGSGTEYTLTISDLECADAATYYCQQGYGYSTVDNAFGGGTEVVVK"
0.696 nM,0.00032 s⁻¹,459000 M⁻¹ s⁻¹,0.755 nM,0.00054 s⁻¹,721000 M⁻¹ s⁻¹,"71F10 (antibody, V domains shown, Rabbit-derived clone; LEM construct: VH + rabbit IgG CH1 + human IgG1 CH2-CH3) VH: QSLEESGGGLVQPGASLTLTCTVSGFDFSSNAMTWVRQAPGEGLEYIGFIGIRGNIYYANWAKGRFTISKTSSTTVTLQMTSLTVADTATYFCARGGLWTGNSYFDLWGPGTLVTVSS VL: YDMTQTPASVSAAVGGTVTINCQASESISRYLAWYQQKPGQPPKPLIYRASTLASGVPSRFKGSGTGTDYTLTISDLECADAATYYCQQGYGYSTVGNAFGGGTEVVVK"
3.85 nM,0.0011 s⁻¹,284000 M⁻¹ s⁻¹,4.63 nM,0.0017 s⁻¹,364000 M⁻¹ s⁻¹,"73C2 (antibody, V domains shown, Rabbit-derived clone; LEM construct: VH + rabbit IgG CH1 + human IgG1 CH2-CH3) VH: QSLEESGGGLVKPGGTLTLTCTVSGFDFSNYAVTWVRQAPGEGLEYIGFVGIYGDFYYANWAKGRFTISKTSSTTVTLQMPSLTVADTATYFCARGGLWTGNSYFDLWGPGTLVTVSS VL: YDMTQTPASVEVAVGGTVTINCQASESINRYLAWYQQKRGQPPKPLIYRAATLASGVPSRFKGSGSGTEYTLTISDLECADAATYYCQQGYGYSTVGNAFGGGTEVVVK"

# Second part, the binder before the results:
Binder,Kd (human Trop-2-His protein),koff (human Trop-2-His protein),kon (human Trop-2-His protein),Kd [1],koff [1],kon [1]
"2H5 (antibody, V domains shown, Rabbit-derived clone; LEM construct: VH + rabbit IgG CH1 + human IgG1 CH2-CH3) VH: QSLEESGGDLVQPGASLTLTCKASGFDLNNYSILWVRQAPGKGLEWIGCIYFSGGSTYYANWAKGRFAISKTSSTTVTLQMTSLTAADTATYFCARDDGTTSYYLNLWGPGTLVTVSS VL: YDMTQTPASVSEPVGGTVTIKCQASEDIYNLLAWYQQKPGQPPKLLIYAASDLESGVPSRFKGSGSGTEYTLTISDLECADAATYYCQQAYTVGNIDNAFGGGTEVVVK",0.822 nM,0.00027 s⁻¹,331000 M⁻¹ s⁻¹,0.582 nM,0.00027 s⁻¹,460000 M⁻¹ s⁻¹
"10E12 (antibody, V domains shown, Rabbit-derived clone; LEM construct: VH + rabbit IgG CH1 + human IgG1 CH2-CH3) VH: QSLEESGGDLVQPGASLTLTCKASGFDLNNYAMLWVRQAPGKGLEWIGCIYISGGTTYFASWATGRFAISKTSSTTVTLQMTSLTAADTATYFCARDDGTTSYYLNLWGPGTLVTVSS VL: YDMTQTPASVSAAVGGTVTIKCQASEDIYSLLAWYQQKPGQPPKLLIYDASDLASGVPSRFKGSGSGTEYTLTISDLECDDAATYYCQQAYTIGNIDNAFGGGTEVVVK",0.173 nM,6.8e-05 s⁻¹,391000 M⁻¹ s⁻¹,0.168 nM,6.8e-05 s⁻¹,605000 M⁻¹ s⁻¹
"10D3 (antibody, V domains shown, Rabbit-derived clone; LEM construct: VH + rabbit IgG CH1 + human IgG1 CH2-CH3) VH: QSLEESGGDLVQPGASLTLTCKAAGFDLNNYSMLWVRQAPGKGLEWIGCIYISGGTTYYASWAKGRFTISKTSSTTVTLQMTSLTAADTATYFCARDDGSTSYYLNLWGPGTLVTVSS VL: YDMTQTPASVSEPVGGTVTIKCQASEDIYRLLAWYQQKPGQPPKLLIYDASDLASGVPSRFKGSGSGTEYTLTISGLQCADAATYYCQQGYTIGNIDNSFGGGTEVVVK",0.562 nM,0.00019 s⁻¹,339000 M⁻¹ s⁻¹,0.455 nM,0.00019 s⁻¹,454000 M⁻¹ s⁻¹
"8H2 (antibody, V domains shown, Rabbit-derived clone; LEM construct: VH + rabbit IgG CH1 + human IgG1 CH2-CH3) VH: QSLEESGGDLVQPGASLTLTCKASGFDLNNYAMLWVRQAPGKGLEWIGCIYISGGTTYFASWATGRFAISKTSSTTVTLQMTSLTAADTATYFCARDDGSTSYYLNLWGPGTLVTVSS VL: YDMTQTPASVSAAVGGTVTIKCQASEDIYSLLAWYQQKPGQPPKLLIYDASDLASGVPSRFKGSGSGTEYTLTISALECDDAATYYCQQAYTIGNIDNTFGGGTEVVVK",0.227 nM,9.6e-05 s⁻¹,423000 M⁻¹ s⁻¹,0.221 nM,9.6e-05 s⁻¹,677000 M⁻¹ s⁻¹
"12G6 (antibody, V domains shown, Rabbit-derived clone; LEM construct: VH + rabbit IgG CH1 + human IgG1 CH2-CH3) VH: QEQLKESGGGLVQPGGSLTLSCKASGFDFNNYGVSWVRQAPGKGLEWIGYIYPAYHNTYYATWVNGRFTISSHNAQNTLYLQLNTLTAADTATYFCARDAGNTDYNFNLWGPGTLVTVSS VL: DVVMTQTPASVEVAVGGTVTIKCQASEDIESYLAWYQQKPGQPPKLLIYEASKLASGVSSRFSGGGYGTEFTLTISGVECADAATYYCQQALTIGNVDNPFGGGSEVVVK",1.22 nM,0.00047 s⁻¹,386000 M⁻¹ s⁻¹,0.911 nM,0.00047 s⁻¹,603000 M⁻¹ s⁻¹
"3E9 (antibody, V domains shown, Rabbit-derived clone; LEM construct: VH + rabbit IgG CH1 + human IgG1 CH2-CH3) VH: QEQLKESGGGLVQPGGSLKLSCKASGFDFNNYGVSWVRQAPGKGLEWIAYIYPAFHNRYYANWVNGRFTISSDNAQNTVYLQLNSLTAADTATYFCARDAGSTDYKFNLWGPGTLVTVSS VL: DVVMTQTPASVSAAVGGTVTIKCQASEDIESYLAWYQQKPGQPPKLLIYDASTLASGVSSRFSGSGYGTEFTLTISGVECADAATYYCQQDLTVGNVDNPFGGGSEVVVE",0.675 nM,0.00038 s⁻¹,568000 M⁻¹ s⁻¹,0.538 nM,0.00038 s⁻¹,888000 M⁻¹ s⁻¹
"3A4 (antibody, V domains shown, Rabbit-derived clone; LEM construct: VH + rabbit IgG CH1 + human IgG1 CH2-CH3) VH: QEQLVESGGGLVQPGGSLTLSCKGSGFDFNEYGVSWVRQAPGKGLEWIAYIYPAFHNTYYATWVNGRFTISSHNAQNTLYLQLHTLTAADTATYFCARDAGTTDYNFNLWGPGTLVTVSS VL: DVVMTQTPASVSAAVGGTVSINCQASEDIENYLAWYQQKPGQPPKLLIYEASKLASGVSSRFSGSGYGTEFTLTISGVECADAATYYCQQALTIGNVDNPFGGGSEVVVK",1.38 nM,0.00069 s⁻¹,500000 M⁻¹ s⁻¹,1.17 nM,0.00069 s⁻¹,729000 M⁻¹ s⁻¹
"2H3 (antibody, V domains shown, Rabbit-derived clone; LEM construct: VH + rabbit IgG CH1 + human IgG1 CH2-CH3) VH: QEQLKESGGGLGQPGGSLTLSCKASGFDFNNYGVSWVRQAPGKGLEWIGYIYPAYHNTYYATWVNGRFTISSHNAQNTLYLQLNTLTAADTATYFCARDTGTTDYNFNLWGPGTLVTVSS VL: DVVMTQTPASVEVAVGGTVTIKCQASEDIESYLAWYQQKPGQPPKLLIYEASKLASGVSSRFSGGGYGTEFTLTISGVECADAATYYCQQALTVGNVDNPFGGGSEVVVK",0.269 nM,0.00013 s⁻¹,488000 M⁻¹ s⁻¹,0.113 nM,0.00013 s⁻¹,727000 M⁻¹ s⁻¹
"9A5 (antibody, V domains shown, Rabbit-derived clone; LEM construct: VH + rabbit IgG CH1 + human IgG1 CH2-CH3) VH: QEQLKESGGGLVQPGGSLTLSCKASGFDFNNYGVSWVRQAPGKGLEWIAYIYPTYHNTYYATWVNGRFTISSHNAQNTLYLQLNTLTAADTATYFCARDAGGTDYNFNLWGPGTLVTVSS VL: DVVMTQTPASVEAAVGGTVTINCQASQSIESYLAWYQQKPGQPPKLLIYEASKLASGVSSRFSGGGYGTEFTLTISGVECADAATYYCQQALTIGNVDNPFGGGSEVVVK",0.767 nM,0.00041 s⁻¹,529000 M⁻¹ s⁻¹,0.698 nM,0.00041 s⁻¹,919000 M⁻¹ s⁻¹
"70E2 (antibody, V domains shown, Rabbit-derived clone; LEM construct: VH + rabbit IgG CH1 + human IgG1 CH2-CH3) VH: QSLEESGGGLVKPGGTLTLTCTVSGFDFSNYAMTWVRQAPGKGLEYIGFIGIRGNIYYANWAKGRFTISKTSSTTVTLQMTSLTVADTATYFCARGGLWTGNSYFDLWGPGTLVTVSS VL: YDMTQTPASVEVPVGGTVTINCQASENINRYLAWYQQKPGQPPKPLIYRAATLASGVPSRFKGSGSGTEYTLSISDLECADAATYYCQQGYGYSTVGNAFGGGTEVVVK",0.871 nM,0.00038 s⁻¹,430000 M⁻¹ s⁻¹,0.892 nM,0.00059 s⁻¹,657000 M⁻¹ s⁻¹
